Measured values published in the supplement of paper PMC12764529.

Experiment: folding stability dG unfold (combined trypsin and chymotrypsin); higher = more stable
Method: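 Folding stability of de novo designed mini-proteins (<80 aa, no Cys; designed by TrROS, TrMRF, ProteinMPNN and the joint model) was measured by cDNA display proteolysis with trypsin and chymotrypsin. Each protease was used at 11 concentrations in a threefold dilution series plus a no-protease condition. K50 was inferred by Bayesian fitting of sequencing counts, and dG unfold was derived against a sequence-predicted unfolded-state K50 (Tsuboyama et al. method). Sequences shown include variable-length N-terminal GS-type padding (SAGGSAGG...) inside a display construct carrying a PA tag. Rows were kept only if the AF2 dimer inter-PAE was >15, to exclude likely homo-oligomers.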

Folding stability dG unfold, < -1 kcal/mol:
SAGGSAGGMEAVLEALKELPPDEEKVITVPHPDDPRYVVRFTLRRKGDEIEIPVEKKPIPPGLASAGGSAGG [r6_392_TrMRF], SAGGSAGGMEKADKLAAALVEKGIPFHVKKVEVFEVRIPPADKELGEVVLPAVKIGLDDKVLLASAGGSAGG [r6_686_TrMRF], SAGGSAGGMKTEVVEETVPLRNEDGKLLPSDALLETELPDKKVLTLVERDPNSDTVKTTRVILESAGGSAGG [r6_659_JUSTAS], SAGGSAGGMSLIVKSEEEAREILKKLGWKVKKLNITKLKDESGTVKIPVEIEPVPKGKLSEELISAGGSAGG [r6_981_JUSTAS], SAGGSAGGNWETIPIKGDPKQMVDEAREENPRNVRIYNPNNGKKHEFPPGLPLDDFPGMYVQRRSAGGSAGG [r6_858_TrROS], SAGGSAGGPKPEIDIEPYPEEGQMYVKIRLPGNGRPITIPVEGPMTPNDPEKAIEEAKDALEKFSAGGSAGG [r6_331_TrROS], SAGGSAGGRIRVPDGREIPPGQSKEEAKDQVKDWFKERNPQNGNKKVKIEAEKWDGMPWIRVKPSAGGSAGG [r6_558_TrROS], SAGGSAGGSAADLAKLEKVEVEEVPTDPNAEYRVTAELPTPGEPVEFTRRRLPDGSWEYSGSAGGSAGGSAG [r3_234_JUSTAS], SAGGSAGGSAEEILELFPDLELLEVDPVEPRALVRRSDDSWLRVNLATGEAEEVGPGEAERESAGGSAGGSA [r18_381_TrMRF], SAGGSAGGSAGAAEFELSGTVRIGDVPVKVTPRLYVPEDGGYRAEPRVELYFREDTPGYRSAGGSAGGSAGG [r11_121_TrMRF], SAGGSAGGSAGAPRVRSVTPVGEETFFLPEDRVVRVTLWAAEGEGPPRLFRRVEVLPLDESAGGSAGGSAGG [r11_129_TrMRF], SAGGSAGGSAGEKPIYYRIKHRNPANGQKVKHEIPFPPNDADEIKEQMEKQPGIDEIEPFSAGGSAGGSAGG [r17_438_TrROS], SAGGSAGGSAGGAKELADRMRDAGYEPEADPDSGKIEVRHPNPNGKRMKREINIPPEDISAGGSAGGSAGGS [r10_1173_TrROS], SAGGSAGGSAGGDADKALPVGFELVEAETVELGDNPVLLVRLKGKNGEQLLLVPPDAPISAGGSAGGSAGGS [r10_968_TrMRF], SAGGSAGGSAGGDKKAIEELVKKLPPDTKLAPVKLPDGKEKLIFVERREDGSRKALVLDSAGGSAGGSAGGS [r10_1017_TrMRF], SAGGSAGGSAGGDNIKIDIDFDPGYGVFTSKIYPPNGGPISDLSIKIPPMSPEDLDKFKSAGGSAGGSAGGS [r10_717_TrROS], SAGGSAGGSAGGDPNIEKTYKIKVAKGDKNGKIIKVIEKEIKVKTPEEAEKFAKELAKSSAGGSAGGSAGGS [r10_57_TrMRF], SAGGSAGGSAGGEEERMWMFSVRVPDKPVMFPFDDLEKLAEEKGVPVKIEWARMPADDLKSAGGSAGGSAGG [r7_185_TrROS], SAGGSAGGSAGGFPNMPIKEIKIDNPERVPGKPRVRIEFTFPGGPRKFMMPADDLQDMFSAGGSAGGSAGGS [r10_771_TrROS], SAGGSAGGSAGGGMKKITISDPVKPGAVITFPLTGETITVPANSSVTITLTEPLPGTYDLSAGGSAGGSAGG [r7_234_JUSTAS], SAGGSAGGSAGGGSPAEQLREMAKQIPPVEIRFPGPGKERTIPDPDNFQEKGWKITEIEFSAGGSAGGSAGG [r7_504_TrROS], SAGGSAGGSAGGGSPNVVVEKKLTVNLPKDVKLDFPPEYEVTVTKGKNTYKITEKIIVNKSAGGSAGGSAGG [r7_584_JUSTAS], SAGGSAGGSAGGIEVDPDYAMITFPIPPNETIKFKLPNEKLKIEVPPGKPISIYIPAKDSAGGSAGGSAGGS [r10_464_TrROS], SAGGSAGGSAGGIRLSPEFRELLKDAPPSPGQKREINFPNGYQITYTVKGNKIDDIEWTPSAGGSAGGSAGG [r7_611_TrROS], SAGGSAGGSAGGKIKLAAANPKVAKELAKILEKELEEKGYKLKPNLKIEVLPAKPDPKLASAGGSAGGSAGG [r7_965_TrMRF], SAGGSAGGSAGGKKKKIKLFIDHYFDGPPNINPEKIEKELKEKGIDVEVVLNALPKENKKSAGGSAGGSAGG [r7_355_TrMRF], SAGGSAGGSAGGKSPLEKLRELAKKNPNVTVYVEKTGKEVKVPSIEELLEKGYKIVKIEKSAGGSAGGSAGG [r7_504_TrROS_Hall], SAGGSAGGSAGGKVIHIPAGDAKTFIKEALEKDKDQPIVIHMYNPDGKEYSTMEVKIKPSAGGSAGGSAGGS [r10_741_TrROS], SAGGSAGGSAGGMALEPKTVTSTLTVFFPDTGKTYPLTETVFIPTKFNLPLPPFPPETLSAGGSAGGSAGGS [r10_1026_JUSTAS], SAGGSAGGSAGGMEVREVVEETPETLVVRTVRFYPDGSVEVLEEERIPLPPPELTPRNLLSAGGSAGGSAGG [r11_843_JUSTAS], SAGGSAGGSAGGMIHIDPTPNGWKASVMNPNNGKPREIPFPPDNIPKLIPKGIDYVHIHPSAGGSAGGSAGG [r7_266_TrROS], SAGGSAGGSAGGMIYPPDEVLEKTTKVEVELPNETGKTITKTIVTKTYAESGKSTIETAGSAGGSAGGSAGG [r17_266_JUSTAS], SAGGSAGGSAGGMKITVKTSYDPSRPVFYEEVYPPGGEPISRKVIEIPPAEPKLIEELLSAGGSAGGSAGGS [r10_717_JUSTAS], SAGGSAGGSAGGMKPYRIGNGAWLYVNPDDSVRIYNPGNGQKRTIPIGKPQPIRLPKNAISAGGSAGGSAGG [r7_299_TrROS], SAGGSAGGSAGGMKVETRTITDPGGIEKVKEDYPGYTVEKTEKLPDGSTKVTLKYPILKSAGGSAGGSAGGS [r10_764_JUSTAS], SAGGSAGGSAGGMLPIPKIEVKPGDEEEAKKTKEKLKKELEEKLGKKAKNLKVDFNPSLSAGGSAGGSAGGS [r10_1216_JUSTAS], SAGGSAGGSAGGMTAVVTEPRLENGKEYLVRTVREFPSAEPRPGAVLEEEVVPLDVPLESAGGSAGGSAGGS [r10_730_JUSTAS], SAGGSAGGSAGGMTETIPVSPSELDEVIEEAKKKGLKKIVLKDPNSSKKTVITKDKVEDESAGGSAGGSAGG [r7_564_JUSTAS], SAGGSAGGSAGGMTTTVIEVDVEPGEVSEEEIKKRLAPLTGKPIEITTDPSGIPVITVEESAGGSAGGSAGG [r7_330_JUSTAS], SAGGSAGGSAGGMVLELEGLGEEEIKALVREIPEDEPVTFVIKSKNNKTSVIPSEEILESAGGSAGGSAGGS [r10_732_JUSTAS], SAGGSAGGSAGGNPGQEVTYQIKIPIRDKNGEPDWKIDIPVTMDTPQDADRFAKEIAKRSAGGSAGGSAGGS [r10_57_TrROS]
